Experimental findings from patent US20230012273A1 (Boehringer Ingelheim, published 2023) are described below.

What all share (assay): SPR, Ab captured, ECD-His analyte
For test [1], the target named is T1, cynomolgus SIRPα extracellular domain + His-tag (EGM_02252) (cynomolgus monkey).
T1 construct: also called CySIRPα EGM_02252; cynoSIRPα
T1 chain: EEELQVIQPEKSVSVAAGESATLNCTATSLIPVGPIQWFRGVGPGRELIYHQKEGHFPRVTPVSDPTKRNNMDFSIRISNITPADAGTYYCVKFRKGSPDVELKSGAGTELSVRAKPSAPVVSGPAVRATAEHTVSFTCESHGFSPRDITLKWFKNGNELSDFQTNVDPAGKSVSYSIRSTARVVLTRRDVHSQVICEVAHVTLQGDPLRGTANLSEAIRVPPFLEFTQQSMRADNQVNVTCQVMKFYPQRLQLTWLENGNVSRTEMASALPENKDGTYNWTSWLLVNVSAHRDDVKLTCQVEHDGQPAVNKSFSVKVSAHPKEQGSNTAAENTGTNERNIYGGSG
Here is the method:
(§1) The binding affinity of anti-SIRPα antibodies to the various SIRPα analytes is determined by surface plasmon resonance (SPR) using a ProteOn XPR36 (Bio-Rad). The running buffer for this experiment and all dilutions (except where stated) are done in 1×HBS-EP+. […] The sensorchip is deactivated with 1M ethanolamine HCl for 420 sec at a flowrate of 10 μl/min.
(§2) The analyte is injected over the captured antibody for 300 sec at a flowrate of 30 μl/min. The dissociation is done for 600 sec. Two-fold serial dilutions of each SIRP protein (Extracellular Domain+His-Tag) are injected as analyte with the highest concentrations indicated in table 36 below.

Test [2] deals with T2, cynomolgus SIRPα extracellular domain + His-tag (XP_015313155) (cynomolgus monkey).
T2 construct: also called CySIRPα XP_015313155; cynoSIRPα
T2 chain: T1 chain with E19D, A27V, T28S, V42A, H51N, Q52L, F227V, M245T
Here is the method: as §1, §2

The target in test [3] is T3, cynomolgus SIRPβ1 extracellular domain + His-tag (XP_005568598) (cynomolgus monkey).
T3 construct: also called Cyno SIRPβ1; cynoSIRPβ1
T3 chain: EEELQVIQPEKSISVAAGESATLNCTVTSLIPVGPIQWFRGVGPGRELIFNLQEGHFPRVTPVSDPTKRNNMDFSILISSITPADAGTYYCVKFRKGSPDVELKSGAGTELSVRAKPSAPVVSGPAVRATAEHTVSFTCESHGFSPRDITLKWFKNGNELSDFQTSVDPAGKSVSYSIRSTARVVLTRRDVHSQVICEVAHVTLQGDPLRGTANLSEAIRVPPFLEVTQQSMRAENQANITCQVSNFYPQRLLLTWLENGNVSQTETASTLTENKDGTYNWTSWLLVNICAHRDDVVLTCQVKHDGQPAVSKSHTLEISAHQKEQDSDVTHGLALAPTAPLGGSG
Here is the method: as §1, §2

Test [4] deals with T4, cynomolgus SIRPβ1v3 extracellular domain + His-tag (XP_005568593) (cynomolgus monkey).
T4 construct: also called Cyno SIRPβ1v3; cynoSIRPβ1v3
T4 chain: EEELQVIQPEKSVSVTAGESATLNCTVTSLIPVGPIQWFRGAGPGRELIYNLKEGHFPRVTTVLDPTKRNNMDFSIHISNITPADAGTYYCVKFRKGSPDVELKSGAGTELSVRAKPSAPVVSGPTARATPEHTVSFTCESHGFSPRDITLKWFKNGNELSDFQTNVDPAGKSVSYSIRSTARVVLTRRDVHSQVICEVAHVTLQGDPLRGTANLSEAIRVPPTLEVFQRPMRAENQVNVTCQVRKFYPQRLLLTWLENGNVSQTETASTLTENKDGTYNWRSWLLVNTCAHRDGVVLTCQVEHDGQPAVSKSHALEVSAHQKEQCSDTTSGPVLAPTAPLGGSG
As to the method: as §1, §2

Test [5] has as its target T5, cynomolgus SIRPγ extracellular domain + His-tag (XP_005568591) (cynomolgus monkey, UniProt Q9P1W8 29-359 (human entry)).
T5 construct: also called Cyno SIRPγ; cynoSIRPγ
T5 chain: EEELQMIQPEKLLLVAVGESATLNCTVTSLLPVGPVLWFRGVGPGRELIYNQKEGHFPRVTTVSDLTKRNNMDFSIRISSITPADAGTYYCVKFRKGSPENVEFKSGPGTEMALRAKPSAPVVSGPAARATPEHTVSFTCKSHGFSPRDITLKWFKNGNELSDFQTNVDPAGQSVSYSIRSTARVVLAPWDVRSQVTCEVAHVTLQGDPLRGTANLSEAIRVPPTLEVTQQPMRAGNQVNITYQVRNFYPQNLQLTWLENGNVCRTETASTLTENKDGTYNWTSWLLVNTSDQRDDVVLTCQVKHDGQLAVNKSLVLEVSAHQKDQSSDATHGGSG
As to the method: as §1, §2

Test [6] addresses T6, human SIRPβ1 extracellular domain + His-tag (NP_006056.2) (human, UniProt O00241 30-371).
T6 construct: also called hSIRPβ1; HuSIRPβ1
As to the method: as §1, §2

The target of test [7] is T7, human SIRPβL/SIRPβ1v3 extracellular domain + His-tag (NP_001129316.1) (human, UniProt Q5TFQ8 30-371).
T7 construct: also called hSIRPβ1v3; HuSIRPβ1v3
As to the method: as §1, §2

Test [8] has as its target T8, human SIRPγ extracellular domain + His-tag (NP_061026.2) (human, UniProt Q9P1W8 29-360).
T8 construct: also called hSIRPγ; HuSIRPγ
Here is the method:
as §1, §2

Positions count from the first letter of the chain named.

As usually defined, the Kd is a measure of binding affinity in units of concentration.

T8 sequence (Q9P1W8 29-360): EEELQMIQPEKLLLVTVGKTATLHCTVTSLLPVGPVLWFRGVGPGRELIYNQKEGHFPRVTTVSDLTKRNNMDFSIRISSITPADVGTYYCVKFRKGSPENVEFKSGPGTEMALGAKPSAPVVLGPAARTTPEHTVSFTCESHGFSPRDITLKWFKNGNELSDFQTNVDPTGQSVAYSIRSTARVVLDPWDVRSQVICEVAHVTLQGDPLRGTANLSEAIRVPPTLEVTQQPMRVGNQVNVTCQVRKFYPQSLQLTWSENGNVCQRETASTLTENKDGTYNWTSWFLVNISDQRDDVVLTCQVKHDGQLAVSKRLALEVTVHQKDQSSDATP
T6 sequence (O00241 other isoform, or with tags, fused parts or gaps): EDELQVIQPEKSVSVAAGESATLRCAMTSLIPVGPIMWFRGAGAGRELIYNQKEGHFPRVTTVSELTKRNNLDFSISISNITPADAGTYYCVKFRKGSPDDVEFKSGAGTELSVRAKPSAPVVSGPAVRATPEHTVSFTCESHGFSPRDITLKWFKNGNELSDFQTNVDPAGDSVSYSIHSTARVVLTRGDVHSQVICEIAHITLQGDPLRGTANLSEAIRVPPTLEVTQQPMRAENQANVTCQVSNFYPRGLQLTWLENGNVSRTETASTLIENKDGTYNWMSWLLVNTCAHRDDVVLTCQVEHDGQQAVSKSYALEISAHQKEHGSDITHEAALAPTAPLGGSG
T7 sequence (Q5TFQ8 other isoform, or with tags, fused parts or gaps): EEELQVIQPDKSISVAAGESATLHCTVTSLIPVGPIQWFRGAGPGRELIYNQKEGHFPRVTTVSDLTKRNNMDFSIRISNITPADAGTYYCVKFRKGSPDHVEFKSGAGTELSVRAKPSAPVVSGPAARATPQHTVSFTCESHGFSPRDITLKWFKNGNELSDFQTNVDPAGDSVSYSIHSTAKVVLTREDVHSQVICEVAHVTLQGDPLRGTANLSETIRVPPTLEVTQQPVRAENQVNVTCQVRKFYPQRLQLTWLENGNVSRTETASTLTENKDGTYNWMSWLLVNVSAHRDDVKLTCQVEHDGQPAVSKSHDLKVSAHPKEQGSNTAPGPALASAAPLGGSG

B1: Antibody A1 (antibody, human IgG1, kappa, L234A L235A, V domains shown)
VH: EVQLVESGGGLVQPGGSLRLSCAASGFTLSSYDMHWVRQAPGKGLEWVSAIGTAGDTYYTGSVKGRFTISRENAKNSLYLQMNSLRADDTAVYYCVRGGVWDDAFDIWGQGTMVTVSS
VL: DIQMTQSPSSLSASVGDRVTITCRASQGINNYAAWFQQKPGKAPKSLIYTASSLHSGVPSKFSGSGSGTDFTLTISSLQPEDFATYYCQQYVSYPYTFGQGTKLEIKR
notes: also called Antibody Al
B1: the Kd in test [1] was determined as 543 nM; in test [2] it was 369 nM; in test [4] it was 557 nM. The binding result is given as “no binding (tested: 1000 nM)” in test [3]; “no binding (tested: 1000 nM)” in test [5]; “no binding (tested: 1000 nM)” in test [6]; “no binding (tested: 100 nM)” in test [7]; “no binding (tested: 1000 nM)” in test [8].

B2: Antibody A2 (antibody, human IgG1, kappa, L234A L235A, V domains shown)
VH: B1 VH with P41T, D88A
VL: B1 VL
With B2, the Kd was found to be 584 nM in test [1], 424 nM in test [2], 552 nM in test [4] and 77.5 nM in test [6]. For the same molecule, the binding result is given as “no binding (tested: 1000 nM)” in test [3], “no binding (tested: 1000 nM)” in test [5], “no binding (tested: 100 nM)” in test [7] and “no binding (tested: 1000 nM)” in test [8].

B3: Antibody A7 (antibody, human IgG1, kappa, L234A L235A, V domains shown)
VH: B1 VH with P41T, D88G
VL: B1 VL
On to B3, for which the Kd in test [1] worked out at 609 nM; in test [2], 389 nM; in test [4], 494 nM; in test [6], 72.2 nM. In addition, the binding result in test [3] is recorded as “no binding (tested: 1000 nM)”; in test [5] it was “no binding (tested: 1000 nM)”; in test [7], “no binding (tested: 100 nM)”; in test [8], “no binding (tested: 1000 nM)”.

B4: Antibody A6 (antibody, human IgG1, kappa, L234A L235A, V domains shown)
VH: B1 VH with D88E
VL: B1 VL
Regarding B4, the Kd amounted to 538 nM in test [1], 366 nM in test [2], 469 nM in test [4] and 65.1 nM in test [6]. The binding result in test [3] is “no binding (tested: 1000 nM)”; in test [5], “no binding (tested: 1000 nM)”; in test [7], “no binding (tested: 100 nM)”; in test [8], “no binding (tested: 1000 nM)”.

B5: Antibody A8 (antibody, human IgG1, kappa, L234A L235A, V domains shown)
VH: B1 VH with D88G
VL: B1 VL
Consider B5, for which the Kd in test [1] came out at 535 nM; in test [2], 350 nM; in test [4], 449 nM; in test [6], 69.6 nM. Besides, the binding result in test [3] was “no binding (tested: 1000 nM)”; in test [5] it was “no binding (tested: 1000 nM)”; in test [7], “no binding (tested: 100 nM)”; in test [8] it was “no binding (tested: 1000 nM)”.

B6: Antibody A3 (antibody, human IgG1, kappa, L234A L235A, V domains shown)
VH: B1 VH with P41T, D88S
VL: B1 VL
As to B6, the Kd in test [1] amounted to 571 nM; in test [2] it was 438 nM; in test [4], 564 nM; in test [6], 70.3 nM. The binding result in test [3] is on record as “no binding (tested: 1000 nM)”; in test [5], “no binding (tested: 1000 nM)”; in test [7], “no binding (tested: 100 nM)”; in test [8] it was “no binding (tested: 1000 nM)”.
